Measured values published in PMC9629490 (Acta Crystallographica. Section D, Structural Biology, 2022).

B1: human PRPF8 C-terminal fragment encompassing the RH and JM domains (PRPF8^RH-JM, residues 1760-2335) (domain or fragment)
chain: not shown
notes: human PRPF8, C-terminal fragment with the RH and JM domains, residues 1760-2335; no tag is stated for this chain (pIDK donor vector); also called PRPF8^RM-JM; prpf8^1760–2335
B2: human PRPF8 Jab1/MPN-like domain (PRPF8^JM, residues 2064-2335) (domain or fragment)
chain: not shown
notes: human PRPF8, Jab1/MPN-like domain, residues 2064-2335; The GST tag is TEV-cleavable; also called PRPF8 JM domain; source: pET-M11 plasmid, codon-optimized synthetic gene; purified, obtained as described previously (Mozaffari-Jovin et al., 2013)

Molecular target: T1, human SNRNP200^395-2136 (truncated SNRNP200 lacking the first 394 residues) (human, UniProt O75643 395-2136)
T1 construct: In the co-purification with PRPF8^RH-JM the complex was captured on Ni-NTA and the tag was then cut with TEV protease; also called SNRNP200 helicase; source: modified pFL vector; purified, obtained as described previously (Santos et al., 2012); also co-produced with PRPF8^RH-JM in Sf9 cells (baculovirus)
Assay: SEC; analytical SEC, Superdex 200 Increase PC3.2/30, 20 mM Tris-HCl pH 7.5, 250 mM NaCl, 0.5 mM DTT; proteins mixed in equimolar ratios, 30 min on ice; fractions analyzed by SDS-PAGE
Conditions: both partners purified

T1 sequence (O75643 395-2136): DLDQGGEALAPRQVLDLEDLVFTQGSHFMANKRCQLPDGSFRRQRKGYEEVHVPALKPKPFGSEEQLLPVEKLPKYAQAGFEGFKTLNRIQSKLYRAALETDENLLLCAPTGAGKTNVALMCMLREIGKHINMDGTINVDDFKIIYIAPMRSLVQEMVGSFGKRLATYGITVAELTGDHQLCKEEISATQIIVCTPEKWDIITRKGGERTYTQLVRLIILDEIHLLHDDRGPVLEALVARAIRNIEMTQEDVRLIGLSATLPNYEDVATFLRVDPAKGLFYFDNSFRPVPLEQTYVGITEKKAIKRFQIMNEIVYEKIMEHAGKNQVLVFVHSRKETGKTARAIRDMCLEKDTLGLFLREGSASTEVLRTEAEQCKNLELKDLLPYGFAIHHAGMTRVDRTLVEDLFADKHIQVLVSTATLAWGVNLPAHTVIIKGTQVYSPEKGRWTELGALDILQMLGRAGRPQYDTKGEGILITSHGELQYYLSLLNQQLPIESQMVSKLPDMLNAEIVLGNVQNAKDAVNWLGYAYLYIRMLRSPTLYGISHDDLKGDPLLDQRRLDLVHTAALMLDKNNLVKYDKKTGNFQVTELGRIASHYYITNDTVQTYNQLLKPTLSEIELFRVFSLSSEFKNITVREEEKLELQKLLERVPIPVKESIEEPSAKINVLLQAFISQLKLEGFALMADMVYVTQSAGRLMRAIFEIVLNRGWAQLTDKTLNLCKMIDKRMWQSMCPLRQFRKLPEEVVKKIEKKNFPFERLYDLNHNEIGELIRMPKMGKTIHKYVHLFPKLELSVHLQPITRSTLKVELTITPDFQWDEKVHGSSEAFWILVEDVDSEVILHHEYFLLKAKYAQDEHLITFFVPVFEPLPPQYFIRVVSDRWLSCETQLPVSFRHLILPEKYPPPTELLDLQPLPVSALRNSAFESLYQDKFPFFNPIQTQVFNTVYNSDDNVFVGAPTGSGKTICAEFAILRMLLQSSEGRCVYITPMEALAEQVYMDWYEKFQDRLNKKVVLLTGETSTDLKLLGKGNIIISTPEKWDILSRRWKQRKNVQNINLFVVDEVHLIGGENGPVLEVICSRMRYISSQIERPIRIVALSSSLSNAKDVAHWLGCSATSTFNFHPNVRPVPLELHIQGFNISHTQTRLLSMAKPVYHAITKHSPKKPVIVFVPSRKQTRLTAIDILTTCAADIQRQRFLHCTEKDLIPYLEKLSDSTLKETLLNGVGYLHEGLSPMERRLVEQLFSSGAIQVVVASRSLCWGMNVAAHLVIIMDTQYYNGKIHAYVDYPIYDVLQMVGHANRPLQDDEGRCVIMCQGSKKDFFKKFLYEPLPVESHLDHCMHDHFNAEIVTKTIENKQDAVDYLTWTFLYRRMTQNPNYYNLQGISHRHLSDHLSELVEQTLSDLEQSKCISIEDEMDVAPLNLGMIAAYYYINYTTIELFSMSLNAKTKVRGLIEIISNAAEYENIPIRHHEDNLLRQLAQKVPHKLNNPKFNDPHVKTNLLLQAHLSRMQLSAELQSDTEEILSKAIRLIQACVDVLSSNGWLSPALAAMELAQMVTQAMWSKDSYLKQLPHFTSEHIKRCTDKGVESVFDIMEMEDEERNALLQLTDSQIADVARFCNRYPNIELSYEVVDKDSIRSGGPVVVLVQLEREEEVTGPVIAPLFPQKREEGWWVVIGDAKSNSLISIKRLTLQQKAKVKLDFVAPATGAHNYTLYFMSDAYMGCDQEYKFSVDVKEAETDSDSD

| Binder | binding result |
| --- | --- |
| B1 | binds |
| B2 | binds |
